Results published in PMC4066409.

Legend:
NZF-1-F2F3 H515Q = experiment: fluorescence anisotropy; conditions: not given in the material (ESI)
NZF-1-F2F3 H559Q = experiment: fluorescence anisotropy; conditions: not given in the material (ESI)

With βRAR DNA the Kd (NZF-1-F2F3 H515Q) was 3 µM and the Kd (NZF-1-F2F3 H559Q) was 3.7 µM.
